According to publication PMC3939855 (Nature immunology, 2013):
Where two headings read alike, the source gives them in different places.

B1: ELF4 (endogenous, human cells) (natural protein)
chain: not shown
B2: ELF4 (endogenous, mouse cells) (natural protein)
chain: not shown
B3: ELF4 (expressed from a plasmid; tag not stated for the experiment) (natural protein)
chain: not shown

How the values were obtained:
native gel or EMSA = molecular target: the molecule itself; assay: native gel or EMSA
[1] = molecular target: the molecule itself

Protein | stoichiometry N (native gel or EMSA) | stoichiometry N [1]
B1 | 2 | 
B2 | 2 | 
B3 |  | 2
